In patent US20220017616A1 (Amgen, published 2022):
Where a chain is given by its changes, count along the chain named. Several values for one entry are separate records, joined by “and”; a condition that tells them apart may be missing. Equal values may be shown once. Values belong to the binder of their own block, whether it stands above or below them.

Tests used:
human CD155 on cells = molecular target: T1, human CD155 on cells (human, UniProt P15151 21-417); test: flow cytometry, CD226-Fc at 10 ug/mL on mock-transfected 293T cells
T1 construct: whole, on cells; also called huCD155
T1 sequence (looked up): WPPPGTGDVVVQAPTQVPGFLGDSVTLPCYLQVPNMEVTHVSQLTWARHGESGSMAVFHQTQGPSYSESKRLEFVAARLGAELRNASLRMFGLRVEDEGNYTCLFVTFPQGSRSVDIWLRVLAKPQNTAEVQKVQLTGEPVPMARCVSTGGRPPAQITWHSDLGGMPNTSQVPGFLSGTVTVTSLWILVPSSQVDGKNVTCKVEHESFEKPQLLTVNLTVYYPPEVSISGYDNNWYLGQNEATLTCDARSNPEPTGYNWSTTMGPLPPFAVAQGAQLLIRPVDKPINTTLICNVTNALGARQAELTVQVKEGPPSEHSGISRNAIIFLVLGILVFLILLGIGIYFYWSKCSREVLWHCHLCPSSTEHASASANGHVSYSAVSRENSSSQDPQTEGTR
Description: In the presence of tool TIGIT antibodies, TIGIT expressed by TIGIT-293 cells is bound by tool antibodies and is blocked from binding to CD155, thereby allowing CD226 to interact with CD155. […] Cells were washed 1× with FACS Buffer and resuspended in FACS buffer. Samples were analyzed using a BD Accuri™ Flow Cytometer and an Intellicyt HyperCyt autoSampler.

[1] = molecular target: T2, human CD112R expressed on CHO K1 cells (pMSCV_FLAG_human CD112R (N81D)(41-326)_IRES_EGFP) (human, UniProt Q6DKI7 41-326); test: flow cytometry on CHO K1 cells expressing human CD112R
T2 construct: also called huCD112R; human CD112R expressed on CHO cells; not shown: FLAG tag named in the vector
T2 sequence: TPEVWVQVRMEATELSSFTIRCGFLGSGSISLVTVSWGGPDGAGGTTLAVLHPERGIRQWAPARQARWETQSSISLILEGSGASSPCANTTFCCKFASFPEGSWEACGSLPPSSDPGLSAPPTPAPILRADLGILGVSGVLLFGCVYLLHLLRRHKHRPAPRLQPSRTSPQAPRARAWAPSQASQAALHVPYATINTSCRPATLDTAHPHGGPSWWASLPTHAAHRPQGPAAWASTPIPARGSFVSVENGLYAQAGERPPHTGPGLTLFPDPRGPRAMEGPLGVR

huTIGIT (PL44403) = molecular target: T3, huTIGIT (PL44403) (human, UniProt Q495A1 22-141); test: Octet, antibody on anti-huIgG Fc capture tips, huTIGIT as analyte
T3 construct: Soluble protein; also called Human TIGIT (Octet analyte, mono-Fc tag)
T3 sequence: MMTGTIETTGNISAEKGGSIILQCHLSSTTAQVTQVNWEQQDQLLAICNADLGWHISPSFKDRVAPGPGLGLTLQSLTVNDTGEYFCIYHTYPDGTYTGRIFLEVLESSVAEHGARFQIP
Description: (§1) In the case of cynoTIGIT, association was monitored for 5 min and dissociation for 5 min. […] The limit of detection of dissociation is 4e-5 based on a minimum of 5% dissociation over 20 minutes.

human TIGIT [2] = molecular target: T4, human TIGIT (human, UniProt Q495A1 22-244); test: flow cytometry on CHO-S cells expressing human TIGIT, competitor CD112-Fc-Alexa 647, at 1 ug/mL
T4 construct: Cell-surface form; also called huTIGIT
T4 sequence: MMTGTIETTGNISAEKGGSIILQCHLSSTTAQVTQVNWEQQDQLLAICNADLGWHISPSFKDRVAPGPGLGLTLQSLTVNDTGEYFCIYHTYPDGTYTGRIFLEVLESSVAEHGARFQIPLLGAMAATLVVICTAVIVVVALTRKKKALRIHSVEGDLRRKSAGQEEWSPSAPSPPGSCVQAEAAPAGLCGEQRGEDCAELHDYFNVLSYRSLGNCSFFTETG
Description: (§2) TIGIT-binding hybridoma supernatants were then tested for their ability to block TIGIT from binding ligand. […] The 7-AAD cell viability stain was then added and the cells incubated for a further 15 minutes at 4° C., washed twice and resuspended in FACS buffer. Samples were analyzed using a BD Accuri™ Flow Cytometer and an Intellicyt HyperCyt autoSampler.

human TIGIT [3] = molecular target: T4, human TIGIT; test: flow cytometry, 1 µg/mL on activated primary human T cells, fold over isotype control
Description: (§3) The binding of hybridoma supernatants to TIGIT expressed by primary human and cynomolgus monkey cells were tested by flow cytometry. For human primary cell binding assay, purified human T cells (Biological Specialty Corp.) were thawed and suspended at a concentration of 2.5×10⁶ cells/mL. […] After 72 hours, cells were removed, washed and suspended at a concentration of 0.5×10⁶ cells/mL with 10 ng/mL of IL-2 (Pepro Tech). Cells were then incubated for another 48 to 72 hours at 37° C./5% CO₂. For cynomolgus primary cell binding assay, cynomolgus PBMCs (SNBL) were thawed and suspended in a concentration between 4×10⁶ and 5×10⁶ cells/mL. […] After 72 hours, cells were removed, washed and suspended at a concentration of 0.5×10E6 cells/mL with 20 ng/mL of IL-2 (Pepro Tech). Cells were then incubated for another 48 to 72 hours at 37° C./5% CO₂. After the final incubation, cells were prepared for flow cytometry by incubation with normalized hybridoma supernatants, positive control antibodies and isotype control antibodies at 1 μg/mL final concentration. […] Cells were then run on BD FACSCanto II flow cytometer to detect anti-TIGIT antibody binding.

human TIGIT [4] = molecular target: T4, human TIGIT; test: cell-based or functional assay
cynoTIGIT (PL40461) = molecular target: T5, cynoTIGIT (PL40461) (cynomolgus monkey); test: Octet, antibody on anti-huIgG Fc capture tips, cynoTIGIT as analyte
T5 construct: Soluble protein; also called Cyno TIGIT (Octet analyte)
T5 sequence (chain, as listed by the source limits assumed): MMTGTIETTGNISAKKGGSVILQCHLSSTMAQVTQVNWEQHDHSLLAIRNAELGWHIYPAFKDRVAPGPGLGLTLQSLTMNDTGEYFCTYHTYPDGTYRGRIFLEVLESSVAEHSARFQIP
Description: as §1

cynomolgus TIGIT [5] = molecular target: T6, cynomolgus TIGIT (cynomolgus monkey); test: flow cytometry on activated primary cyno PBMCs, fold over isotype control
T6 construct: Cell-surface form; also called cyno TIGIT
T6 sequence (chain, as listed by the source): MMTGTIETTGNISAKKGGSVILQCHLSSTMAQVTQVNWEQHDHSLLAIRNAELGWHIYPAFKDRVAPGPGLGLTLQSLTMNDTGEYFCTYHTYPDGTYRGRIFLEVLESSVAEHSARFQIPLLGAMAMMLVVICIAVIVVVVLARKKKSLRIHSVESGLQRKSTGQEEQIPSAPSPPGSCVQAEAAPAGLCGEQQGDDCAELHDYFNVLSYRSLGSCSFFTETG
Description: as §3

human TIGIT [6] = molecular target: T4, human TIGIT; test: flow cytometry on CHO-S cells expressing human TIGIT, competitor huCD155-Fc-Alexa 647, at 1.7 µg/mL
Description: as §2

human TIGIT [7] = molecular target: T4, human TIGIT; test: cell-based or functional assay; remark: listed apart in the source
cynomolgus TIGIT [8] = molecular target: T6, cynomolgus TIGIT; test: flow cytometry, 1 µg/mL on activated primary cyno PBMCs, fold over isotype control
Description: as §3

binding result (human CD155 on cells): binds
B1: human CD226-Fc (Fc fusion, UniProt Q15762 19-247, looked up, not shown: a dimerising Fc or GST)
chain: EEVLWHTSVPFAENMSLECVYPSMGILTQVEWFKIGTQQDSIAIFSPTHGMVIRKPYAERVYFLNSTMASNNMTLFFRNASEDDVGYYSCSLYTYPQGTWQKVIQVVQSDSFEAAVPSNSHIVSEPGKNVTLTCQPQMTWPVQAVRWEKIQPRQIDLLTYCNLVHGRNFTSKFPRQIVSNCSHGRWSVIVIPDVTVSDSGLYRCYLQASAGENETFVMRLTVAEGKTDN
notes: also called huCD226; CD226-Fc (R&D, 666-DN)

EC50 [1]: 1.61 µg/mL and 12.8 nM
B2: human CD112-Fc (Fc fusion, UniProt Q92692 32-360, looked up, not shown: a dimerising Fc or GST)
chain: QDVRVQVLPEVRGQLGGTVELPCHLLPPVPGLYISLVTWQRPDAPANHQNVAAFHPKMGPSFPSPKPGSERLSFVSAKQSTGQDTEAELQDATLALHGLTVEDEGNYTCEFATFPKGSVRGMTWLRVIAKPKNQAEAQKVTFSQDPTTVALCISKEGRPPARISWLSSLDWEAKETQVSGTLAGTVTVTSRFTLVPSGRADGVTVTCKVEHESFEEPALIPVTLSVRYPPEVSISGYDDNWYLGRTDATLSCDVRSNPEPTGYDWSTTSGTFPTSAVAQGSQLVIHAVDSLFNTTFVCTVTNAVGMGRAEQVIFVRETPNTAGAGATGG
notes: treated as the same reagent; also called Human CD112 Ligand; CD112 ligand

Kd (huTIGIT (PL44403)): < 0.1 nM
% inhibition (human TIGIT [2]): 100%
FACS Geomean Fold (human TIGIT [3]): 11.6 fold
Potency [nM], Jurkat human TIGIT/IL-2-luciferase RGA, n = 1 (human TIGIT [4]): 1.9 nM
Potency [nM], Jurkat human TIGIT/IL-2-luciferase RGA, n = 2 (human TIGIT [4]): 2.7 nM
binding result (cynoTIGIT (PL40461)): no binding
binding result (cynomolgus TIGIT [5]): no binding (tested: 1 µg/mL)
% inhibition (human TIGIT [6]): 100%
B3: 11A3 (antibody, V domains shown)
VH: QVQLVQSGAEVKKPGASVKVSCKASGYTFTSYYIHWVRQAPGQGLEWMGIINPSGGRTSYAQMFQGRVTLTRDTSTNTVYMELSSLRSEDTAVFYCAKDREEQWPVGGFDYWGQGTLVTVSS
VL: DIQMTQSPSSLSASVGDRVTITCRASQNIRRYLNWYQQKPGKAPELLIYSASNLQNGVPSRFSGSGSGTDFTLTISSLQPEDFATYYCQQSYIIPPTFGQGTKVEIRR
notes: Fully human XenoMouse antibody, tested as hybridoma supernatant or purified mAb

Kd (huTIGIT (PL44403)): < 0.1 nM
% inhibition (human TIGIT [2]): 97%
FACS Geomean Fold (human TIGIT [3]): 14.4 fold
Potency [nM], Jurkat human TIGIT/IL-2-luciferase RGA, n = 1 (human TIGIT [4]): 4.3 nM
Potency [nM], Jurkat human TIGIT/IL-2-luciferase RGA, n = 2 (human TIGIT [4]): 2.1 nM
binding result (cynoTIGIT (PL40461)): no binding
activity in the primary CD8 memory T-cell assay (IFN-γ release, CHO-K1-CD155+ cells) (human TIGIT [7]): 160 pM
binding result (cynomolgus TIGIT [5]): no binding (tested: 1 µg/mL)
% inhibition (human TIGIT [6]): 100%
B4: 28B8 (antibody, V domains shown)
VH: QVQLQESGPGLVKPSETLFLTCTVSGGSVTNYYWSWIRQPAGKGLEWIGRIYTSGSTYYNPSLKSRVTMSLDTSKNQFSLRLSSVTAADTAVYYCAREGFTMVRGVMGAFDIWGQGTMVTVSS
VL: B3 VL with N28S, K39I, E45K, L46F, S50D, N53S, N56S, I93S, I94T, R107K
notes: as for B3

Kd (huTIGIT (PL44403)): < 0.1 nM
% inhibition (human TIGIT [2]): 100%
FACS Geomean Fold (human TIGIT [3]): 13.7 fold
Potency [nM], Jurkat human TIGIT/IL-2-luciferase RGA, n = 1 (human TIGIT [4]): 3.4 nM
Potency [nM], Jurkat human TIGIT/IL-2-luciferase RGA, n = 2 (human TIGIT [4]): 2.5 nM
Kd (cynoTIGIT (PL40461)): 13 nM
FACS Geomean Fold (cynomolgus TIGIT [8]): 4.7 fold
activity in the primary CD8 memory T-cell assay (IFN-γ release, CHO-K1-CD155+ cells) (human TIGIT [7]): 90 pM
% inhibition (human TIGIT [6]): 100%
B5: 43B7 (antibody, V domains shown)
VH: QVQLQESGPGLVKPSQTLSLTCTVSGGSISSGGYYWSWIRQHPGKGLEWIGYIYYRGGTYYNPSLRSRVTMSVDTSKNQFSLMLSSVTAADTAVYYCARTIFGVIILDNWGQGTPVTVSS
VL: DIQMTQSPSSLSASVGDRVTITCRSSQSISSYLNWYQQKPGRAPKLLIHAASSLQSGVPSRFSGSGSGTDFTLTISSLQPEDFASYCCQQSYTTPPTFGGGTKVEIKR
notes: as for B3
